# T1: recombinant human soluble endoglin (sEng; Glu26-Gly586) (human, UniProt P17813 26-586)
# T1 construct: human endoglin (CD105), extracellular domain, Glu26-Gly586; The same bought protein was the probe of the array and the analyte of the BLI; also called recombinant human endoglin/CD105 protein; source: bought: R&D Systems (1097-EN), purified recombinant
# T1 sequence (looked up): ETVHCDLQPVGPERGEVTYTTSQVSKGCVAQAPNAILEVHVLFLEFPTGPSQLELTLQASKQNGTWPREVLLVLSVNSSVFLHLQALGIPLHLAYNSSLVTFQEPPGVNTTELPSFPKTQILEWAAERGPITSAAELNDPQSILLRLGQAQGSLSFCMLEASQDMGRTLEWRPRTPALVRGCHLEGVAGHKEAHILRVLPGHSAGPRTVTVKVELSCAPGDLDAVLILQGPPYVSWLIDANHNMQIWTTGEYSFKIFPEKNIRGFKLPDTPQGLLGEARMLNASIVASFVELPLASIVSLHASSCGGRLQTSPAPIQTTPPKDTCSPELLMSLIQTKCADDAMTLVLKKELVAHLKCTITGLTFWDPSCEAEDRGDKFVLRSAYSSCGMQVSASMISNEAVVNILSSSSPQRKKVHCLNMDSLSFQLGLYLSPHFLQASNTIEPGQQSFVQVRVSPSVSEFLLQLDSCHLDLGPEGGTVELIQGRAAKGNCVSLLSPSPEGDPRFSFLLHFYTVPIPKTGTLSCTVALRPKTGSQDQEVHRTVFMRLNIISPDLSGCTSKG
# Target: T1, recombinant human soluble endoglin …
# Test: peptide or protein array; ProtoArray human protein Microarray v5.0 (over 9000 human proteins arrayed) probed with recombinant sEng in two replicates; detection with anti-endoglin mAb SN6h and HRP secondary antibody; hits with Z-score >=2.0 in both arrays
# Conditions: both partners purified
row,binding result,Binder
1,binds,"Family with sequence similarity 126, member B (FAM126B) (natural protein, human, UniProt Q8IXS8 1-530, looked up, human FAM126B; source: bought: ProtoArray human protein Microarray v5.0 (Life Technologies), individually purified and arrayed) MLGTDRCVVEEWLSEFKALPDTQITSYAATLHRKKTLVPALYKVIQDSNNELLEPVCHQLFELYRSSEVRLKRFTLQFLPELMWVYLRLTVSRDRQSNGCIEALLLGIYNLEIADKDGNNKVLSFTIPSLSKPSIYHEPSTIGSMALTEGALCQHDLIRVVYSDLHPQRETFTAQNRFEVLSFLMLCYNSAIVYMPASSYQSLCRMGSRVCVSGFPRQHEKHWKELCGRIVLDPEFMVQLLTGVYYAMYNGQWDLGQEVLDDIIYRAQLELFSQPLLVANAMKNSLPFDAPDSTQEGQKVLKVEVTPTVPRISRTAITTASIRRHRWRREGAEGVNGGEESVNLNDADEGFSSGASLSSQPIGTKPSSSSQRGSLRKVATGRSAKDKETASAIKSSESPRDSVVRKQYVQQPTDLSVDSVELTPMKKHLSLPAGQVVPKINSLSLIRTASASSSKSFDYVNGSQASTSIGVGTEGGTNLAANNANRYSTVSLQEDRLGQAGEGKELLSPGAPLTKQSRSPSFNMQLISQV"
2,binds,"RAD51 associated protein 1 (RAD51AP1) (natural protein, human, UniProt Q96B01-2 1-335, looked up, human RAD51 associated protein 1; source: bought: ProtoArray human protein Microarray v5.0 (Life Technologies), individually purified and arrayed) MVRPVRHKKPVNYSQFDHSDSDDDFVSATVPLNKKSRTAPKELKQDKPKPNLNNLRKEEIPVQEKTPKKRMALDDKLYQRDLEVALALSVKELPTVTTNVQNSQDKSIEKHGSSKIETMNKSPHISNCSVASDYLDLDKITVEDDVGGVQGKRKAASKAAAQQRKILLEGSDGDSANDTEPDFAPGEDSEDDSDFCESEDNDEDFSMRKSKVKEIKKKEVKVKSPVEKKEKKSKSKCNALVTSVDSAPAAVKSESQSLPKKVSLSSDTTRKPLEIRSPSAESKKPKWVPPAASGGSRSSSSPLVVVSVKSPNQSLRLGLSRLARVKPLHPNATST"
3,binds,"Spliceosome-associated protein CWC15 homolog (HSPC148) (natural protein, human, UniProt Q9P013 1-229, looked up, human spliceosome-associated protein CWC15 homolog; source: bought: ProtoArray human protein Microarray v5.0 (Life Technologies), individually purified and arrayed) MTTAARPTFEPARGGRGKGEGDLSQLSKQYSSRDLPSHTKIKYRQTTQDAPEEVRNRDFRRELEERERAAAREKNRDRPTREHTTSSSVSKKPRLDQIPAANLDADDPLTDEEDEDFEEESDDDDTAALLAELEKIKKERAEEQARKEQEQKAEEERIRMENILSGNPLLNLTGPSQPQANFKVKRRWDDDVVFKNCAKGVDDQKKDKRFVNDTLRSEFHKKFMEKYIK"
4,binds,"Cortactin (CTTN), transcript variant 2 (natural protein, human, UniProt Q14247-3 1-513, looked up, source: bought: ProtoArray human protein Microarray v5.0 (Life Technologies), individually purified and arrayed) MWKASAGHAVSIAQDDAGADDWETDPDFVNDVSEKEQRWGAKTVQGSGHQEHINIHKLRENVFQEHQTLKEKELETGPKASHGYGGKFGVEQDRMDKSAVGHEYQSKLSKHCSQVDSVRGFGGKFGVQMDRVDQSAVGFEYQGKTEKHASQKDYSSGFGGKYGVQADRVDKSAVGFDYQGKTEKHESQRDYSKGFGGKYGIDKDKVDKSAVGFEYQGKTEKHESQKDYVKGFGGKFGVQTDRQDKCALGWDHQEKLQLHESQKDYSKGFGGKYGVQKDRMDKNASTFEDVTQVSSAYQKTVPVEAVTSKTSNIRANFENLAKEKEQEDRRKAEAERAQRMAKERQEQEEARRKLEEQARAKTQTPPVSPAPQPTEERLPSSPVYEDAASFKAELSYRGPVSGTEPEPVYSMEAADYREASSQQGLAYATEAVYESAEAPGHYPAEDSTYDEYENDLGITAVALYDYQAAGDDEISFDPDDIITNIEMIDDGWWRGVCKGRYGLFPANYVELRQ"

# The next lines start with the binder.
row,Binder,binding result
1,"HIRA interacting protein 3 (HIRIP3) (natural protein, human, UniProt Q9BW71-1 1-556, looked up, source: bought: ProtoArray human protein Microarray v5.0 (Life Technologies), individually purified and arrayed) MAREKEMQEFTRSFFRGRPDLSTLTHSIVRRRYLAHSGRSHLEPEEKQALKRLVEEELLKMQVDEAASREDKLDLTKKGKRPPTPCSDPERKRFRFNSESESGSEASSPDYFGPPAKNGVAAEVSPAKEENPRRASKAVEESSDEERQRDLPAQRGEESSEEEEKGYKGKTRKKPVVKKQAPGKASVSRKQAREESEESEAEPVQRTAKKVEGNKGTKSLKESEQESEEEILAQKKEQREEEVEEEEKEEDEEKGDWKPRTRSNGRRKSAREERSCKQKSQAKRLLGDSDSEEEQKEAASSGDDSGRDREPPVQRKSEDRTQLKGGKRLSGSSEDEEDSGKGEPTAKGSRKMARLGSTSGEESDLEREVSDSEAGGGPQGERKNRSSKKSSRKGRTRSSSSSSDGSPEAKGGKAGSGRRGEDHPAVMRLKRYIRACGAHRNYKKLLGSCCSHKERLSILRAELEALGMKGTPSLGKCRALKEQREEAAEVASLDVANIISGSGRPRRRTAWNPLGEAAPPGELYRRTLDSDEERPRPAPPDWSHMRGIISSDGESN",binds
2,"Origin recognition complex, subunit 6 like (yeast) (ORC6L) (natural protein, human, UniProt Q9Y5N6 1-252, looked up, human origin recognition complex subunit 6; source: bought: ProtoArray human protein Microarray v5.0 (Life Technologies), individually purified and arrayed) MGSELIGRLAPRLGLAEPDMLRKAEEYLRLSRVKCVGLSARTTETSSAVMCLDLAASWMKCPLDRAYLIKLSGLNKETYQSCLKSFECLLGLNSNIGIRDLAVQFSCIEAVNMASKILKSYESSLPQTQQVDLDLSRPLFTSAALLSACKILKLKVDKNKMVATSGVKKAIFDRLCKQLEKIGQQVDREPGDVATPPRKRKKIVVEAPAKEMEKVEEMPHKPQKDEDLTQDYEEWKRKILENAASAQKATAE",binds
3,"Potassium voltage-gated channel, shaker-related subfamily, beta member 1 (KCNAB1), transcript variant 1 (natural protein, human, UniProt Q14722-1 1-419, looked up, human KCNAB1, transcript variant 1; source: bought: ProtoArray human protein Microarray v5.0 (Life Technologies), individually purified and arrayed) MLAARTGAAGSQISEENTKLRRQSGFSVAGKDKSPKKASENAKDSSLSPSGESQLRARQLALLREVEMNWYLKLCDLSSEHTTVCTTGMPHRNLGKSGLRVSCLGLGTWVTFGGQISDEVAERLMTIAYESGVNLFDTAEVYAAGKAEVILGSIIKKKGWRRSSLVITTKLYWGGKAETERGLSRKHIIEGLKGSLQRLQLEYVDVVFANRPDSNTPMEEIVRAMTHVINQGMAMYWGTSRWSAMEIMEAYSVARQFNMIPPVCEQAEYHLFQREKVEVQLPELYHKIGVGAMTWSPLACGIISGKYGNGVPESSRASLKCYQWLKERIVSEEGRKQQNKLKDLSPIAERLGCTLPQLAVAWCLRNEGVSSVLLGSSTPEQLIENLGAIQVLPKMTSHVVNEIDNILRNKPYSKKDYRS",binds
4,"Coiled-coil domain containing 55 (CCDC55), transcript variant 1 (natural protein, human, UniProt Q9H0G5 1-558, looked up, human CCDC55, transcript variant 1; source: bought: ProtoArray human protein Microarray v5.0 (Life Technologies), individually purified and arrayed) MAIPGRQYGLILPKKTQQLHPVLQKPSVFGNDSDDDDETSVSESLQREAAKKQAMKQTKLEIQKALAEDATVYEYDSIYDEMQKKKEENNPKLLLGKDRKPKYIHNLLKAVEIRKKEQEKRMEKKIQREREMEKGEFDDKEAFVTSAYKKKLQERAEEEEREKRAAALEACLDVTKQKDLSGFYRHLLNQAVGEEEVPKCSFREARSGIKEEKSRGFSNEVSSKNRIPQEKCILQTDVKVEENPDADSDFDAKSSADDEIEETRVNCRREKVIETPENDFKHHRSQNHSRSPSEERGHSTRHHTKGSRTSRGHEKREDQHQQKQSRDQENHYTDRDYRKERDSHRHREASHRDSHWKRHEQEDKPRARDQRERSDRVWKREKDREKYSQREQERDRQQNDQNRPSEKGEKEEKSKAKEEHMKVRKERYENNDKYRDREKREVGVQSSERNQDRKESSPNSRAKDKFLDQERSNKMRNMAKDKERNQEKPSNSESSLGAKHRLTEEGQEKGKEQERPPEAVSKFAKRNNEETVMSARDRYLARQMARVNAKTYIEKEDD",binds
5,"Family with sequence similarity 39, member B (FAM39B) (natural protein, human, UniProt Q6VEQ5 1-465, looked up, human FAM39B; source: bought: ProtoArray human protein Microarray v5.0 (Life Technologies), individually purified and arrayed) MTPVRMQHSLAGQTYAVPLIQPDLRREEAVQQMADALQYLQKVSGDIFSRISQQVEQSRSQVQAIGEKVSLAQAKIEKIKGSKKAIKVFSSAKYPAPERLQEYGSIFTGAQDPGLQRRPRHRIQSKHRPLDERALQEKLKDFPVCVSTKPEPEDDAEEGLGGLPSNISSVSSLLLFNTTENLYKKYVFLDPLAGAVTKTHVMLGAETEEKLFDAPLSISKREQLEQQVPENYFYVPDLGQVPEIDVPSYLPDLPGIANDLMYIADLGPGIAPSAPGTIPELPTFHTEVAEPLKVDLQDGVLTPPPPPPPPPPAPEVLASAPPLPPSTAAPVGQGARQDDSSSSASPSVQGAPREVVDPSGGRATLLESIRQAGGIGKAKLRSMKERKLEKKKQKEQEQVRATSQGGHLMSDLFNKLVMRRKGISGKGPGAGEGPGGAFARVSDSIPPLPPPQQPQAEEDEDDWES",binds
